Assay results taken from doi:10.1101/2025.08.11.669663 (bioRxiv, 2025).

B1: catalase (CAT) (natural protein, human (endogenous in HeLa), UniProt P04040 1-527, looked up)
chain: MADSRDPASDQMQHWKEQRAAQKADVLTTGAGNPVGDKLNVITVGPRGPLLVQDVVFTDEMAHFDRERIPERVVHAKGAGAFGYFEVTHDITKYSKAKVFEHIGKKTPIAVRFSTVAGESGSADTVRDPRGFAVKFYTEDGNWDLVGNNTPIFFIRDPILFPSFIHSQKRNPQTHLKDPDMVWDFWSLRPESLHQVSFLFSDRGIPDGHRHMNGYGSHTFKLVNANGEAVYCKFHYKTDQGIKNLSVEDAARLSQEDPDYGIRDLFNAIATGKYPSWTFYIQVMTFNQAETFPFNPFDLTKVWPHKDYPLIPVGKLVLNRNPVNYFAEVEQIAFDPSNMPPGIEASPDKMLQGRLFAYPDTHRHRLGPNYLHIPVNCPYRARVANYQRDGPMCMQDNQGGAPNYYPNSFGAPEQQPSALEHSIQYSGEVRRFNTANDDNVTQVRAFYVNVLNEEQRKRLCENIAGHLKDAQIFIQKKAVKNFTEVHPDYGSHIQALLDKYNAEKPKNAIHTFVQSGSHLAAREKANL

Experiments:
[1] = target: B1; assay: co-IP
[2] = target: Cu/Zn superoxide dismutase (SOD1) (human (endogenous in HeLa), UniProt P00441 1-154); assay: co-IP
Cu/Zn superoxide dismutase (SOD1), sequence (P00441 whole entry): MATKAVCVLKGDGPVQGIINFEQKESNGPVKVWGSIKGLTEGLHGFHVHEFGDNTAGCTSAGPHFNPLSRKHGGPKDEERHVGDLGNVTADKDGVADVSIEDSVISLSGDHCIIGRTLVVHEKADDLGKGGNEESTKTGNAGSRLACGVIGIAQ

co-precipitated amount after H2O2 treatment, percent of that without H2O2 [1] [%] | co-precipitated amount after H2O2 treatment, percent of control [2] [%] | Binder | further results
175 | – | PRIM2 (a DNA primase subunit) (natural protein, human (endogenous in HeLa), UniProt P49643 1-509, looked up) MEFSGRKWRKLRLAGDQRNASYPHCLQFYLQPPSENISLIEFENLAIDRVKLLKSVENLGVSYVKGTEQYQSKLESELRKLKFSYRENLEDEYEPRRRDHISHFILRLAYCQSEELRRWFIQQEMDLLRFRFSILPKDKIQDFLKDSQLQFEAISDEEKTLREQEIVASSPSLSGLKLGFESIYKIPFADALDLFRGRKVYLEDGFAYVPLKDIVAIILNEFRAKLSKALALTARSLPAVQSDERLQPLLNHLSHSYTGQDYSTQGNVGKISLDQIDLLSTKSFPPCMRQLHKALRENHHLRHGGRMQYGLFLKGIGLTLEQALQFWKQEFIKGKMDPDKFDKGYSYNIRHSFGKEGKRTDYTPFSCLKIILSNPPSQGDYHGCPFRHSDPELLKQKLQSYKISPGGISQILDLVKGTHYQVACQKYFEMIHNVDDCGFSLNHPNQFFCESQRILNGGKDIKKEPIQPETPQPKPSVQKTKDASSALASLNSSLEMDMEGLEDYFSEDS | co-precipitated amount after H2O2 treatment, percent of that without H2O2 [2]: 130%
– | – | peroxiredoxin 2 (PRDX2) (natural protein, human (endogenous in HeLa), UniProt P32119 1-198, looked up) MASGNARIGKPAPDFKATAVVDGAFKEVKLSDYKGKYVVLFFYPLDFTFVCPTEIIAFSNRAEDFRKLGCEVLGVSVDSQFTHLAWINTPRKEGGLGPLNIPLLADVTRRLSEDYGVLKTDEGIAYRGLFIIDGKGVLRQITVNDLPVGRSVDEALRLVQAFQYTDEHGEVCPAGWKPGSDTIKPNVDDSKEYFSKHN | co-precipitated amount after H2O2 treatment, percent of control [1]: 139%
190 | – | POLD1 (a DNA polymerase subunit) (natural protein, human (endogenous in HeLa), UniProt P28340 1-1107, looked up) MDGKRRPGPGPGVPPKRARGGLWDDDDAPRPSQFEEDLALMEEMEAEHRLQEQEEEELQSVLEGVADGQVPPSAIDPRWLRPTPPALDPQTEPLIFQQLEIDHYVGPAQPVPGGPPPSRGSVPVLRAFGVTDEGFSVCCHIHGFAPYFYTPAPPGFGPEHMGDLQRELNLAISRDSRGGRELTGPAVLAVELCSRESMFGYHGHGPSPFLRITVALPRLVAPARRLLEQGIRVAGLGTPSFAPYEANVDFEIRFMVDTDIVGCNWLELPAGKYALRLKEKATQCQLEADVLWSDVVSHPPEGPWQRIAPLRVLSFDIECAGRKGIFPEPERDPVIQICSLGLRWGEPEPFLRLALTLRPCAPILGAKVQSYEKEEDLLQAWSTFIRIMDPDVITGYNIQNFDLPYLISRAQTLKVQTFPFLGRVAGLCSNIRDSSFQSKQTGRRDTKVVSMVGRVQMDMLQVLLREYKLRSYTLNAVSFHFLGEQKEDVQHSIITDLQNGNDQTRRRLAVYCLKDAYLPLRLLERLMVLVNAVEMARVTGVPLSYLLSRGQQVKVVSQLLRQAMHEGLLMPVVKSEGGEDYTGATVIEPLKGYYDVPIATLDFSSLYPSIMMAHNLCYTTLLRPGTAQKLGLTEDQFIRTPTGDEFVKTSVRKGLLPQILENLLSARKRAKAELAKETDPLRRQVLDGRQLALKVSANSVYGFTGAQVGKLPCLEISQSVTGFGRQMIEKTKQLVESKYTVENGYSTSAKVVYGDTDSVMCRFGVSSVAEAMALGREAADWVSGHFPSPIRLEFEKVYFPYLLISKKRYAGLLFSSRPDAHDRMDCKGLEAVRRDNCPLVANLVTASLRRLLIDRDPEGAVAHAQDVISDLLCNRIDISQLVITKELTRAASDYAGKQAHVELAERMRKRDPGSAPSLGDRVPYVIISAAKGVAAYMKSEDPLFVLEHSLPIDTQYYLEQQLAKPLLRIFEPILGEGRAEAVLLRGDHTRCKTVLTGKVGGLLAFAKRRNCCIGCRTVLSHQGAVCEFCQPRESELYQKEVSHLNALEERFSRLWTQCQRCQGSLHEDVICTSRDCPIFYMRKKVRKDLEDQEQLLRRFGPPGPEAW | –
– | 180 | glyceraldehyde-3-phosphate dehydrogenase (GAPDH) (natural protein) not shown | –
– | 170 | B1 | –
